Results from patent publication US5770690, “Bax omega protein and methods” (Neurex Corporation, dated 1998).

Target: T1, Bax-ω GAL4-transactivation domain hybrid (plasmid Bax-ω-GAL424) (yeast; human)
T1 chain: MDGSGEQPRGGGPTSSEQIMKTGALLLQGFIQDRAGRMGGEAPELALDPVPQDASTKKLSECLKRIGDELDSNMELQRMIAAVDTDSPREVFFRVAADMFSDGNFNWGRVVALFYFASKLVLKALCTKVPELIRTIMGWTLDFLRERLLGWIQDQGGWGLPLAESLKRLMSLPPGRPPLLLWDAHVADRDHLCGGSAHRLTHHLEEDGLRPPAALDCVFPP
Test: yeast two-hybrid: β-galactosidase filter assay (SFY526) and growth in the absence of histidine (HF7C); (-) means white signal / no growth

- binding result: no binding
B1: Bax-ω GAL4-DNA binding domain hybrid (plasmid Bax-ω-pAS1) (other)
chain: MDGSGEQPRGGGPTSSEQIMKTGALLLQGFIQDRAGRMGGEAPELALDPVPQDASTKKLSECLKRIGDELDSNMELQRMIAAVDTDSPREVFFRVAADMFSDGNFNWGRVVALFYFASKLVLKALCTKVPELIRTIMGWTLDFLRERLLGWIQDQGGWGLPLAESLKRLMSLPPGRPPLLLWDAHVADRDHLCGGSAHRLTHHLEEDGLRPPAALDCVFPP
